Test results published in patent US20040170969A1 (published 2004).

T1: Flag-epitope-tagged murine Ras-GRF2 (murine, UniProt P70392 1-1189, limits assumed)
T1 construct: Bait; expressed stably (Clone 13, Clone 21) or transiently in human 293 cells; also called Flag-GRF2; FLAG-GRF2
T1 sequence (looked up): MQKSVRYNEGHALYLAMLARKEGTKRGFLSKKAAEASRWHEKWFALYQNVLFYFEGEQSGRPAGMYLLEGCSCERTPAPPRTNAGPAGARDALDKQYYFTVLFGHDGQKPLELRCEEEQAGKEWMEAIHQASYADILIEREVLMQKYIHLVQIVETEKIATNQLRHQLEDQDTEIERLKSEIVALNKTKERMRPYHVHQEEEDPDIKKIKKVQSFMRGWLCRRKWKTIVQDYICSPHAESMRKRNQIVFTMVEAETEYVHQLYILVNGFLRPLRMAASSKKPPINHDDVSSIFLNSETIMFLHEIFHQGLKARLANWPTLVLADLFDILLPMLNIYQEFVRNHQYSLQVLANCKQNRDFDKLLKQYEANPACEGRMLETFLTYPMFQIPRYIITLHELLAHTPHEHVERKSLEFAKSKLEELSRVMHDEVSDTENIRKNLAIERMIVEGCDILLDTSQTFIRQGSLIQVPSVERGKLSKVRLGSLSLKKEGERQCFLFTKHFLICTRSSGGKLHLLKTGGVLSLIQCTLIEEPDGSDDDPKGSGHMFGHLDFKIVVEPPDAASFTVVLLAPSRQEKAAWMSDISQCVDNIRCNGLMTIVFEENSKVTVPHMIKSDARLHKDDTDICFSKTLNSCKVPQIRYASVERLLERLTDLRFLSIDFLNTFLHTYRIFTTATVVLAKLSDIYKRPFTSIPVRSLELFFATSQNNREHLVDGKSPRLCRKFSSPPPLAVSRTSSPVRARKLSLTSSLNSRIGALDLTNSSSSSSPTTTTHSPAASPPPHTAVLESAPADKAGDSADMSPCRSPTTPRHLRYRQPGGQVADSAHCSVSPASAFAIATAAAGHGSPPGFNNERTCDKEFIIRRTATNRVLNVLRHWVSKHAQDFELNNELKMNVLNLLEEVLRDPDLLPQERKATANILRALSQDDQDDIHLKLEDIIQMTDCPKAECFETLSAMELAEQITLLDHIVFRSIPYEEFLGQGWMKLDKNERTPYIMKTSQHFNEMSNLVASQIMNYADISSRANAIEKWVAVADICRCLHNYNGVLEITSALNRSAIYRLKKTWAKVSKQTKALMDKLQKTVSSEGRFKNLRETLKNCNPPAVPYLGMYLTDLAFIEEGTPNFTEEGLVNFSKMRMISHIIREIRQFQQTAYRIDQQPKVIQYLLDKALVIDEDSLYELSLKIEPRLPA

B1: FLAG-PP2C (enzyme, human, UniProt O75688 1-479, looked up, not shown: small tags and cut ends)
chain: MGAFLDKPKTEKHNAHGAGNGLRYGLSSMQGWRVEMEDAHTAVVGIPHGLEDWSFFAVYDGHAGSRVANYCSTHLLEHITTNEDFRAAGKSGSALELSVENVKNGIRTGFLKIDEYMRNFSDLRNGMDRSGSTAVGVMISPKHIYFINCGDSRAVLYRNGQVCFSTQDHKPCNPREKERIQNAGGSVMIQRVNGSLAVSRALGDYDYKCVDGKGPTEQLVSPEPEVYEILRAEEDEFIILACDGIWDVMSNEELCEYVKSRLEVSDDLENVCNWVVDTCLHKGSRDNMSIVLVCFSNAPKVSDEAVKKDSELDKHLESRVEEIMEKSGEEGMPDLAHVMRILSAENIPNLPPGGGLAGKRNVIEAVYSRLNPHRESDGASDEAEESGSQGKLVEALRQMRINHRGNYRQLLEEMLTSYRLAKVEGEESPAEPAATATSSNSDAGNPVTMQESHTESESGLAELDSSNEDAGTKMSGEKI
notes: also called PP2C bait
B2: FLAG-Ndr (cells treated with okadaic acid) (enzyme, not shown: small tags and cut ends)
chain: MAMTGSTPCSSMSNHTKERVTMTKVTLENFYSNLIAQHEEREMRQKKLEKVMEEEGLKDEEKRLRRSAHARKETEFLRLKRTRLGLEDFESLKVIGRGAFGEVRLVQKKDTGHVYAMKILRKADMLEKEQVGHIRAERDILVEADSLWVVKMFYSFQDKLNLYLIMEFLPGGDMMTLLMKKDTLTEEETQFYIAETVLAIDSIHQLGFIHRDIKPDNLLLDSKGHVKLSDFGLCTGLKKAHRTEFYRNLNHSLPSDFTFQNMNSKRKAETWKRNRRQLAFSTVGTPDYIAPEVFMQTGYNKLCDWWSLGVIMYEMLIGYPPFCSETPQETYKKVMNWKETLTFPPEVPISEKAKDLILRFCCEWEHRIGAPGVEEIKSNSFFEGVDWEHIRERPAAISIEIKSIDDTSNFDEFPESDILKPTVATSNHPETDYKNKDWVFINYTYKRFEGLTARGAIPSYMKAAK
notes: also called Ndr bait; active Ndr
B3: FLAG-Ndr (K118A) mutant fusion protein (enzyme, not shown: small tags and cut ends)
chain: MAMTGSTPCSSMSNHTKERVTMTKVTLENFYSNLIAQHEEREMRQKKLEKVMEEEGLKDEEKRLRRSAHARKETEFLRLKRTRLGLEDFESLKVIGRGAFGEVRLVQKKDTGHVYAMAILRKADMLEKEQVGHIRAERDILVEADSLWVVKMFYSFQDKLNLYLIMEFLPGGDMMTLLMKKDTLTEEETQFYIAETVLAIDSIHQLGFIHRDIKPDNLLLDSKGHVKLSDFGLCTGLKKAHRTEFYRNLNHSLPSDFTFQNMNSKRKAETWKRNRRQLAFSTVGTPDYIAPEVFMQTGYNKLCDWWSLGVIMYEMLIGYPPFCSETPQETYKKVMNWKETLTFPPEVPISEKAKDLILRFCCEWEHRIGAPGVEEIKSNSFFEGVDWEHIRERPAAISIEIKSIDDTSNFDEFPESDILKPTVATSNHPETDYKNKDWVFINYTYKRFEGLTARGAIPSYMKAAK
notes: also called K118A Ndr
B4: DKFZp434D174.1 (GI 7512558) (other, UniProt P57678 1-1058, looked up)
chain: MDLGPLNICEEMTILHGGFLLAEQLFHPKALAELTKSDWERVGRPIVEALREISSAAAHSQPFAWKKKALIIIWAKVLQPHPVTPSDTETRWQEDLFFSVGNMIPTINHTILFELLKSLEASGLFIQLLMALPTTICHAELERFLEHVTVDTSAEDVAFFLDVWWEVMKHKGHPQDPLLSQFSAMAHKYLPALDEFPHPPKRLRSDPDACPTMPLLAMLLRGLTQIQSRILGPGRKCCALANLADMLTVFALTEDDPQEVSATVYLDKLATVISVWNSDTQNPYHQQALAEKVKEAERDVSLTSLAKLPSETIFVGCEFLHHLLREWGEELQAVLRSSQGTSYDSYRLCDSLTSFSQNATLYLNRTSLSKEDRQVVSELAECVRDFLRKTSTVLKNRALEDITASIAMAVIQQKMDRHMEVCYIFASEKKWAFSDEWVACLGSNRALFRQPDLVLRLLETVIDVSTADRAIPESQIRQVIHLILECYADLSLPGKNKVLAGILRSWGRKGLSEKLLAYVEGFQEDLNTTFNQLTQSASEQGLAKAVASVARLVIVHPEVTVKKMCSLAVVNLGTHKFLAQILTAFPALRFVEEQGPNSSATFMVSCLKETVWMKFSTPKEEKQFLELLNCLMSPVKPQGIPVAALLEPDEVLKEFVLPFLRLDVEEVDLSLRIFIQTLEANACREEYWLQTCSPFPLLFSLCQLLDRFSKYWQLPKEKRCLSLDRKDLAIHILELLCEIVSANAETFSPDVWIKSLSWLHRKLEQLDWTVGLRLKSFFEGHFKCEVPATLFEICKLSEDEWTSQAHPGYGAGTGLLAWMECCCVSSGISERMLSLLVVDVGNPEEVRLFSKGFLVALVQVMPWCSPQEWQRLHQLTRRLLEKQLLHVPYSLEYIQFVPLLNLKPFAQELQLSVLFLRTFQFLCSHSCRDWLPLEGWNHVVKLLCGSLTRLLDSVRAIQAAGPWVQGPEQDLTQEALFVYTQVFCHALHIMAMLHPEVCEPLYVLALETLTCYETLSKTNPSVSSLLQRAHEQRFLKSIAEGIGPEERRQTLLQKMSSF
notes: also called gemin4; gemin 4
B5: protein 4.1 isoB (GI 182074) (other, UniProt P11171-3 1-641, looked up)
chain: MHCKVSLLDDTVYECVVEKHAKGQDLLKRVCEHLNLLEEDYFGLAIWDNATSKTWLDSAKEIKKQVRGVPWNFTFNVKFYPPDPAQLTEDITRYYLCLQLRQDIVAGRLPCSFATLALLGSYTIQSELGDYDPELHGVDYVSDFKLAPNQTKELEEKVMELHKSYRSMTPAQADLEFLENAKKLSMYGVDLHKAKDLEGVDIILGVCSSGLLVYKDKLRINRFPWPKVLKISYKRSSFFIKIRPGEQEQYESTIGFKLPSYRAAKKLWKVCVEHHTFFRLTSTDTIPKSKFLALGSKFRYSGRTQAQTRQASALIDRPAPHFERTASKRASRSLDGAAAVDSADRSPRPTSAPAITQGQVAEGGVLDASAKKTVVPKAQKETVKAEVKKEDEPPEQAEPEPTEAWKVEKTHIEVTVPTSNGDQTQKKRERLDGENIYIRHSNLMLEDLDKSQEEIKKHHASISELKKNFMESVPEPRPSEWDKRLSTHSPFRTLNINGQIPTGEGPPLVKTQTVTISDNANAVKSEIPTKDVPIVHTETKTITYEAAQTDDNSGDLDPGVLLTAQTITSETPSSTTTTQITKTVKGGISETRIEKRIVITGDADIDHDQVLVQAIKEAKEQHPDMSVTKVVVHQETEIADE
notes: also called Erythroid protein 4.1 isoform B

Tests used:
[1] = target: B4; experiment: anti-FLAG co-IP, MS
Protocol: (§1) Forty-eight hours (h or hr) later, transfected cells (approximately 1×10⁸ cells) were washed in Tris-Saline (25 mM Tris-HCl pH 7.5, 140 mM NaCl, 8 mM KCl, 700 μM Na₂HPO₄, 5.5 mM glucose) and lysed in Lysis Buffer (KLB, 20 mM Tris-HCl pH7.5, 150 mM NaCl, 1% NP40, 0.5% sodium deoxycholate, and 0.2 mM AEBSF (4-(2-aminoethyl)-benzenesulfonyl fluoride)). Following centrifugation to remove insoluble material, clarified lysates were incubated with Sepharose-4B (10 μl packed sepharose/ml of lysate) for 20 min at 4° C. with gentle mixing (by end-over-end inversion). The supernatant was then incubated with immobilized anti-Flag monoclonal antibodies (M2-agarose, Sigma-Aldrich; 1 μl packed M2-agarose/ml lysate) for 60 min at 4° C. with gentle mixing. The M2-agarose was washed two times with 1 ml KLB lacking AEBSF, and washed one time with 1 ml of 50 mM ammonium bicarbonate. […] After 30 min at 4° C., the M2-agarose beads were removed by centrifugation, the eluted proteins were lyophilized by vacuum centrifugation and resuspended in SDS-PAGE sample buffer.

[2] = target: T1, Flag-epitope-tagged murine Ras-GRF2; experiment: anti-FLAG co-IP, MS
Protocol: as §1

Binder	binding result [1]	binding result [2]
B1	no binding	–
B2	no binding	–
B3	no binding	–
B4	–	no binding
B5	–	no binding
